Literature values, collected in article PMC5535146.
Like-named read-outs stand apart in the source and are kept apart here.

Tests used:
calmodulin [1] = target: calmodulin (UniProt P0DP23)
calmodulin [2] = target: calmodulin (UniProt P0DP23); remark: listed apart in the source

Substance | Kd (calmodulin [1]) [nM] | Kd (calmodulin [2]) [nM]
CyaA adenylate cyclase AC (from UniProt P0DKX7) | 0.2 | –
edema factor (from UniProt P40136) | – | 20
